What was measured:
recombinant human GM-CSF = biological target: T1, recombinant human GM-CSF (human, UniProt P04141 18-144); assay: SPR (BIAcore 2000), rhGM-CSF on the chip, global fitting of Rmax
T1 construct: also called rhGM-CSF
Procedure: Biosensor analyses were carried out using a commercially available, BIAcore 2000, and a carboxymethyldetran coated sensor chip. The chip was derivatized with 1000, 300, or 100 RVs of recombinant human GM-CSF, on channels 1, 2, and 3 of the machine using standard amine coupling chemistry with channel 4 retained as the control blank channel.
After injection, dissociation was monitored by allowing HBS buffer to flow over the chip surface for 5 minutes. Any bound antibody was then eluted, and the chip surface was regenerated, between samples, via injecting 40 μl of 100 mM HCl, pH 2.7, at a rate of 5 μl/min.

G250 antigen = G250 antigen (UniProt Q16790 38-459); assay: flow cytometry (FACS) on G250 positive tumor cells

T1 sequence (P04141 18-144 limits assumed): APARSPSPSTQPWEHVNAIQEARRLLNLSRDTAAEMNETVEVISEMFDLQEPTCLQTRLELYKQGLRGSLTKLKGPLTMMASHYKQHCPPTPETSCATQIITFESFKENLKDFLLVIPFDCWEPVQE

B1: chimeric 19/2 anti-human GM-CSF monoclonal antibody (antibody, V domains shown)
VH: EVQLQQSGPELVKPGASVKISCKASGYTFTDYNIHWVKQSHGKSLDWIGYIAPYSGGTGYNQEFKNRATLTVDKSSSTAYMELRSLTSDDSAVYYCARRDRFPYFDYWGQGTTLRVSS
VL: DIVMIQSQKFVSTSVGDRVNITCKASQNVGSNVAWLQQKPGQSPKTLIYSASYRSGRVPDRFTGSGSGTDFILTITTVQSEDLAEYFCQQFNRSPLTFGSGTKLELKR
notes: made in CHO DG44 cells; also called chimeric 19/2 antibody; ch19/2
Recombinant human GM-CSF
  Ka: 2.69e+10 M⁻¹
  koff: 1.9e-05 s⁻¹

B2: chimeric G250 antibody (antibody, V domains shown)
VH: DVKLVESGAALVKLGGSLKLSCAASGFTFSNYYMSWVRQTPEKRLELVAAINSDGGITYYLDTVKGRFTISRDNAKNTLYLQMSSLKSEDTALFYCARHRSGYFSMDYWGQGTSVTVSS
VL: DIVMTQSQRFMSTTVGDRVSITCKASQNVVSAVAWYQQKPGQSPKLLIYSASNRYTGVPDRFTGSGSGTDFTLTISNMQSEDLADFFCQQYSNYPWTFGGGTKLEIKR
notes: Used as positive control in FACS; Its making is not described apart from this
G250 antigen
  binding result: binds
